Measured values: patent publication US20140243256A1 (ADMINISTRATORS OF THE TULANE EDUCATIONAL FUND, published 2014)

Molecular target: T1, Pichinde virus (PICV) glycoprotein spikes on purified virus (Pichinde virus (CoAn 3739), UniProt P03540 59-273; P03540 2-58)
T1 construct: also called monomeric or oligomeric glycoproteins; GPC
T1 sequence 1: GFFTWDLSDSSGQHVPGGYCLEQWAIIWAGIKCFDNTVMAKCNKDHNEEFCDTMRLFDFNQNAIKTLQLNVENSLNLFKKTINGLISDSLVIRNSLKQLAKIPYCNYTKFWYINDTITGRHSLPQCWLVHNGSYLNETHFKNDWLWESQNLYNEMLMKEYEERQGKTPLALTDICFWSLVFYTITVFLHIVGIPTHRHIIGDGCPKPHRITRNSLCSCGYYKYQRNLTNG
T1 sequence 2: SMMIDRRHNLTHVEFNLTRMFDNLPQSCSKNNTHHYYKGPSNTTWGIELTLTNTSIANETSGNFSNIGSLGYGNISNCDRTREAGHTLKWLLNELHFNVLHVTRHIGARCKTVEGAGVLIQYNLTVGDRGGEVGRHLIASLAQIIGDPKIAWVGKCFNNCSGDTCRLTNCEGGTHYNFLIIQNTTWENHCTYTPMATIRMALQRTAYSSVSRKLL
T1 sequence 3: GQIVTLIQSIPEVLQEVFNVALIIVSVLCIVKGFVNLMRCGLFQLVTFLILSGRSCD
Test: glutaraldehyde crosslinking of PICV with peptide

Question: Does LNLFKKTINGLISDSLVIR (TAMRA conjugated (position of the dye not stated), also called TAMRA-peptide) [TAMRA-conjugated Peptide 1] bind?
Answer: no binding
